The values below come from doi:10.1101/2023.01.23.525297.

Read-outs that look alike come from different tables or passages of the source.

What is called stoichiometry N is the number of molecules, sites or subunits per partner or assembly.

Experiment [1] concerns the target noumeavirus NMV_189 (noumeavirus).
For experiment [2] the target is unchanged. The experiment is described as follows: crystal structure.
The target in experiment [3] is zamilon vitis Zav_19 (zamilon vitis virophage).
Experiment [4] has the same target. The experiment can be described thus: crystal structure.

Take noumeavirus NMV_189 (natural protein): the stoichiometry N in experiment [1] and in experiment [2] was 3 throughout.

On to zamilon vitis Zav_19 (natural protein), for which the stoichiometry N in experiment [3] and in experiment [4] was 3 in each case.
